Assay results from patent publication US20200024322A1 (Eli Lilly, published 2020).
Changes are numbered by the printed parent chain. Numbered stars: 1 amine (or outer) side, 2 acyl side, 3 side chain; on linkers, the order of the positions; unused ones are H or OH. Square brackets hold non-standard residues; d marks the D form. Side chains are listed from the residue outwards. Ends that are not written are not given here. * marks the point of attachment. C18 diacid = O=C(O)CCCCCCCCCCCCCCCCC(=O)*; γGlu = O=C(O)[C@H](CCC(=O)[*:2])N[*:1]; AEEA = NCCOCCOCC(=O)O; Aib = CC(C)(N)C(=O)O

T1: human gastric inhibitory peptide receptor (GIPR) (human, UniProt P48546 22-466)
T1 sequence (looked up): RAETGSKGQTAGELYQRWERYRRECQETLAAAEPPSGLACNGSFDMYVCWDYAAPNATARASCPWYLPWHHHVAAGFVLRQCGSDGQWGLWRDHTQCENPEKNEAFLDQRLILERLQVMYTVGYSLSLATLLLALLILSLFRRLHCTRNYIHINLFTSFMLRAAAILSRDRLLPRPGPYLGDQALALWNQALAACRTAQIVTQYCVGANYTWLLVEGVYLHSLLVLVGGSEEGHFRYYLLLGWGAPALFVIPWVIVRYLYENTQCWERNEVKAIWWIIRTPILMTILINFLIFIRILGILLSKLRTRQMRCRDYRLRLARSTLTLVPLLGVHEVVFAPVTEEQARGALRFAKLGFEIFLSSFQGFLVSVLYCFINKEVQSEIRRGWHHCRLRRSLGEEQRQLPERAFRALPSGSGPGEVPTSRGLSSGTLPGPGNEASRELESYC

T2: human GIP receptor (human, UniProt P48546 22-466)
T2 construct: whole, on cells; also called hGIPR; hGIP-R
T2 sequence (looked up): T1 sequence (looked up)

B1: (D-Tyr)-Aib-EGTFTSDYSI-αMeL-LD-Orn-K((2-[2-(2-Amino-ethoxy)-ethoxy]-acetyl)2-(γ-Glu)-CO-(CH2)18-CO2H)AQ-Aib-AFVEYLIEGGPSSGAPPPS-NH2 (peptide)
peptide: XXEGTFTSDYSIXLDXKAQXAFVEYLIEGGPSSGAPPPS
modifications: D-Tyr1; Aib2; αMeL13; Orn16; K17 conjugated to (2-[2-(2-Amino-ethoxy)-ethoxy]-acetyl)2-(γ-Glu)-CO-(CH2)18-CO2H; Aib20; C-terminal amide (NH2)
B2: (D-Tyr)-Aib-EGTFTSDYSI-αMeL-LDKK((2-[2-(2-Amino-ethoxy)-ethoxy]-acetyl)2-(γ-Glu)-CO-(CH2)18-CO2H)AQ-Aib-AFV-(D-Glu)-YLIAGGPSSGAPPPS-NH2 (peptide)
peptide: B1 peptide with X16K, E24X, E28A
modifications: D-Tyr1; Aib2; αMeL13; K17 conjugated to (2-[2-(2-Amino-ethoxy)-ethoxy]-acetyl)2-(γ-Glu)-CO-(CH2)18-CO2H; Aib20; D-Glu24; C-terminal amide (NH2)
B3: Example 294 (peptide)
peptide: Y[Aib]EGTFTSDYSILLDKK([AEEA-AEEA-γGlu-C18 diacid])AQQAFIEYLIEGG-NH2
modifications: N-terminus assumed
SMILES: CC[C@H](C)[C@H](NC(=O)[C@H](CC(C)C)NC(=O)[C@H](Cc1ccc(O)cc1)NC(=O)[C@H](CCC(=O)O)NC(=O)[C@@H](NC(=O)[C@H](Cc1ccccc1)NC(=O)[C@H](C)NC(=O)[C@H](CCC(N)=O)NC(=O)[C@H](CCC(N)=O)NC(=O)[C@H](C)NC(=O)[C@H](CCCCNC(=O)COCCOCCNC(=O)COCCOCCNC(=O)CC[C@H](NC(=O)CCCCCCCCCCCCCCCCC(=O)O)C(=O)O)NC(=O)[C@H](CCCCN)NC(=O)[C@H](CC(=O)O)NC(=O)[C@H](CC(C)C)NC(=O)[C@H](CC(C)C)NC(=O)[C@@H](NC(=O)[C@H](CO)NC(=O)[C@H](Cc1ccc(O)cc1)NC(=O)[C@H](CC(=O)O)NC(=O)[C@H](CO)NC(=O)[C@@H](NC(=O)[C@H](Cc1ccccc1)NC(=O)[C@@H](NC(=O)CNC(=O)[C@H](CCC(=O)O)NC(=O)C(C)(C)NC(=O)[C@@H](N)Cc1ccc(O)cc1)[C@@H](C)O)[C@@H](C)O)[C@@H](C)CC)[C@@H](C)CC)C(=O)N[C@@H](CCC(=O)O)C(=O)NCC(=O)NCC(N)=O
B4: Example 325 (peptide)
peptide: YXEGTXTSDYSILLDKKAQXAFIEYLIEGGPSSGAPPPS
modifications: Aib2; αMeF(2F)6; K17((2-[2-(2-Amino-ethoxy)-ethoxy]-acetyl)2-(γ-Glu)-CO-(CH2)18-CO2H); Aib20; C-terminal NH2
B5: Example 300 (peptide)
peptide: YXEGTFTSDYSIXLDKKAQXAFIEYLIEGGPSSG
modifications: Aib2; αMeL13; K17((2-[2-(2-Amino-ethoxy)-ethoxy]-acetyl)2-(γ-Glu)-CO-(CH2)16-CO2H); Aib20; C-terminal NH2
B6: Example 302 (peptide)
peptide: B5 peptide with F6X, X13L
modifications: Aib2; αMeF(2F)6; K17((2-[2-(2-Amino-ethoxy)-ethoxy]-acetyl)2-(γ-Glu)-CO-(CH2)16-CO2H); Aib20; C-terminal NH2
B7: Example 301 (peptide)
peptide: B5 peptide with F6X, X13L
modifications: Aib2; αMeF6; K17((2-[2-(2-Amino-ethoxy)-ethoxy]-acetyl)2-(γ-Glu)-CO-(CH2)16-CO2H); Aib20; C-terminal NH2
notes: also called GG-650
B8: Example 305 (peptide)
peptide: B5 peptide with E28A
modifications: Aib2; αMeL13; K17((2-[2-(2-Amino-ethoxy)-ethoxy]-acetyl)2-(γ-Glu)-CO-(CH2)16-CO2H); Aib20; C-terminal NH2
B9: Example 303 (peptide)
peptide: B5 peptide with K16E
modifications: Aib2; αMeL13; K17((2-[2-(2-Amino-ethoxy)-ethoxy]-acetyl)2-(γ-Glu)-CO-(CH2)16-CO2H); Aib20; C-terminal NH2
B10: Example 308 (peptide)
peptide: B5 peptide with F6X, X13L, A21E
modifications: Aib2; αMeF6; K17((2-[2-(2-Amino-ethoxy)-ethoxy]-acetyl)2-(γ-Glu)-CO-(CH2)16-CO2H); Aib20; C-terminal NH2
B11: Example 307 (peptide)
peptide: B5 peptide with F6X, X13L, K16E
modifications: Aib2; αMeF6; K17((2-[2-(2-Amino-ethoxy)-ethoxy]-acetyl)2-(γ-Glu)-CO-(CH2)16-CO2H); Aib20; C-terminal NH2
B12: Example 311 (peptide)
peptide: B5 peptide with F6X, X13L, K16E
modifications: Aib2; αMeF(2F)6; K17((2-[2-(2-Amino-ethoxy)-ethoxy]-acetyl)2-(γ-Glu)-CO-(CH2)16-CO2H); Aib20; C-terminal NH2
B13: Example 310 (peptide)
peptide: B5 peptide with F6X, X13L, A21E, E28A
modifications: Aib2; αMeF6; K17((2-[2-(2-Amino-ethoxy)-ethoxy]-acetyl)2-(γ-Glu)-CO-(CH2)16-CO2H); Aib20; C-terminal NH2
B14: Example 309 (peptide)
peptide: B5 peptide with F6X, X13L, E28A
modifications: Aib2; αMeF6; K17((2-[2-(2-Amino-ethoxy)-ethoxy]-acetyl)2-(γ-Glu)-CO-(CH2)16-CO2H); Aib20; C-terminal NH2
B15: Example 314 (peptide)
peptide: B5 peptide with F6X, X13L, A21E, E28A
modifications: Aib2; αMeF(2F)6; K17((2-[2-(2-Amino-ethoxy)-ethoxy]-acetyl)2-(γ-Glu)-CO-(CH2)16-CO2H); Aib20; C-terminal NH2
B16: Example 313 (peptide)
peptide: B5 peptide with F6X, X13L, E28A
modifications: Aib2; αMeF(2F)6; K17((2-[2-(2-Amino-ethoxy)-ethoxy]-acetyl)2-(γ-Glu)-CO-(CH2)16-CO2H); Aib20; C-terminal NH2
B17: Example 312 (peptide)
peptide: B5 peptide with F6X, X13L, A21E
modifications: Aib2; αMeF(2F)6; K17((2-[2-(2-Amino-ethoxy)-ethoxy]-acetyl)2-(γ-Glu)-CO-(CH2)16-CO2H); Aib20; C-terminal NH2
B18: Example 367 (peptide)
peptide: YXEGTFTSDYSIXLDKKAQXEFIEXLIAGGPSSGAPPPS
modifications: Aib2; αMeL13; K17((2-[2-(2-Amino-ethoxy)-ethoxy]-acetyl)2-(γ-Glu)-CO-(CH2)18-CO2H); Aib20; αMeY25; C-terminal NH2
B19: Example 293 (peptide)
peptide: B18 peptide with Y1X, K16X
modifications: D-Tyr1; Aib2; αMeL13; Orn16; K17((2-[2-(2-Amino-ethoxy)-ethoxy]-acetyl)2-(γ-Glu)-CO-(CH2)18-CO2H); Aib20; αMeY25; C-terminal NH2
B20: Example 329 (peptide)
peptide: B4 peptide with Y1X
modifications: D-Tyr1; Aib2; αMeF6; K17((2-[2-(2-Amino-ethoxy)-ethoxy]-acetyl)2-(γ-Glu)-CO-(CH2)18-CO2H); Aib20; C-terminal NH2
B21: Example 335 (peptide)
peptide: B4 peptide with Y1X, L13X
modifications: D-Tyr1; Aib2; αMeF6; αMeL13; K17((2-[2-(2-Amino-ethoxy)-ethoxy]-acetyl)2-(γ-Glu)-CO-(CH2)18-CO2H); Aib20; C-terminal NH2
B22: Example 336 (peptide)
peptide: B4 peptide with Y1X, L13X
modifications: D-Tyr1; Aib2; αMeF(2F)6; αMeL13; K17((2-[2-(2-Amino-ethoxy)-ethoxy]-acetyl)2-(γ-Glu)-CO-(CH2)18-CO2H); Aib20; C-terminal NH2
B23: Example 358 (peptide)
peptide: B1 peptide with E28A
modifications: D-Tyr1; Aib2; αMeL13; Orn16; K17((2-[2-(2-Amino-ethoxy)-ethoxy]-acetyl)2-(γ-Glu)-CO-(CH2)18-CO2H); Aib20; C-terminal NH2
B24: Example 346 (peptide)
peptide: B1 peptide with V23I, E28A
modifications: D-Tyr1; Aib2; αMeL13; Orn16; K17((2-[2-(2-Amino-ethoxy)-ethoxy]-acetyl)2-(γ-Glu)-CO-(CH2)18-CO2H); Aib20; C-terminal NH2
B25: Example 360 (peptide)
peptide: B1 peptide
modifications: D-Tyr1; Aib2; αMeL13; Orn16; K17((2-[2-(2-Amino-ethoxy)-ethoxy]-acetyl)2-(γ-Glu)-CO-(CH2)18-CO2H); Aib20; C-terminal NH2
B26: Example 316 (peptide)
peptide: Y[Aib]EGTFTSDYSILLDKK([AEEA-AEEA-γGlu-C18 diacid])AQ[Aib]AFIEYLIAGGPSSGAPPPS-NH2
modifications: N-terminus assumed
SMILES: CC[C@H](C)[C@H](NC(=O)[C@H](CC(C)C)NC(=O)[C@H](Cc1ccc(O)cc1)NC(=O)[C@H](CCC(=O)O)NC(=O)[C@@H](NC(=O)[C@H](Cc1ccccc1)NC(=O)[C@H](C)NC(=O)C(C)(C)NC(=O)[C@H](CCC(N)=O)NC(=O)[C@H](C)NC(=O)[C@H](CCCCNC(=O)COCCOCCNC(=O)COCCOCCNC(=O)CC[C@H](NC(=O)CCCCCCCCCCCCCCCCC(=O)O)C(=O)O)NC(=O)[C@H](CCCCN)NC(=O)[C@H](CC(=O)O)NC(=O)[C@H](CC(C)C)NC(=O)[C@H](CC(C)C)NC(=O)[C@@H](NC(=O)[C@H](CO)NC(=O)[C@H](Cc1ccc(O)cc1)NC(=O)[C@H](CC(=O)O)NC(=O)[C@H](CO)NC(=O)[C@@H](NC(=O)[C@H](Cc1ccccc1)NC(=O)[C@@H](NC(=O)CNC(=O)[C@H](CCC(=O)O)NC(=O)C(C)(C)NC(=O)[C@@H](N)Cc1ccc(O)cc1)[C@@H](C)O)[C@@H](C)O)[C@@H](C)CC)[C@@H](C)CC)C(=O)N[C@@H](C)C(=O)NCC(=O)NCC(=O)N1CCC[C@H]1C(=O)N[C@@H](CO)C(=O)N[C@@H](CO)C(=O)NCC(=O)N[C@@H](C)C(=O)N1CCC[C@H]1C(=O)N1CCC[C@H]1C(=O)N1CCC[C@H]1C(=O)N[C@@H](CO)C(N)=O

Target: T1, human gastric inhibitory peptide …
Experiment: cell-based or functional assay

Binder	hGIPR cAMP EC50 ratio
B1	0.53
B2	0.261

Target: human GLP-1 receptor (GLP-1R) (human, UniProt P43220 24-463)
Experiment: cell-based or functional assay

Binder	hGLP1R cAMP EC50 ratio
B1	0.171
B2	0.0259

Target: T2, human GIP receptor
Experiment: [125I]-GIP competition SPA, hGIPR membranes

Binder	Ki [nM]
B3	0.205
B4	0.0209
B5	0.0504
B6	0.0289
B7	0.0273
B8	0.025
B9	0.058
B10	0.0288
B11	0.0773
B12	0.0497
B13	0.0315
B14	0.0264
B15	0.027
B16	0.0261
B17	0.0348
B18	0.0282
B19	0.0775
B20	0.0439
B21	0.0444
B22	0.0277
B23	0.0636
B24	0.0559
B25	0.128
B26	0.0418

Target: T3, human glucagon receptor (human, UniProt P47871 26-477)
T3 construct: whole, on cells; also called hGcgR; GcgR
T3 sequence (P47871 26-477): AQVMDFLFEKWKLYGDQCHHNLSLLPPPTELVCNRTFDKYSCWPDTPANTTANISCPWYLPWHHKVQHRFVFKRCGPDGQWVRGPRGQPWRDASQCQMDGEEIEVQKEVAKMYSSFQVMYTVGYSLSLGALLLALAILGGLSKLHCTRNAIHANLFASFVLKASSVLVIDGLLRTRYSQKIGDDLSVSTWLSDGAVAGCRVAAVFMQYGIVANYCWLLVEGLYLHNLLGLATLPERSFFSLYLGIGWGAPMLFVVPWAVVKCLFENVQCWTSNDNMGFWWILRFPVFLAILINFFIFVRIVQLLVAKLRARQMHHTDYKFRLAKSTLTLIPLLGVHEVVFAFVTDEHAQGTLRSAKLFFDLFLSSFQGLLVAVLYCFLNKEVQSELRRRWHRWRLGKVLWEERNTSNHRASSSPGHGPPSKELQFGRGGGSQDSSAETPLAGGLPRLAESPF
Experiment: [125I]-Gcg competition SPA, hGcgR membranes

Binder	Ki [nM]
B3	629
B4	13
B5	251
B6	18.5
B7	44.4
B8	352
B9	502
B10	94.2
B11	117
B12	115
B13	174
B14	64.1
B15	116
B16	27.6
B17	106
B18	777
B19	668
B20	17
B21	27.1
B22	17.1
B23	915
B24	310
B25	485
B26	654

Target: T4, human GLP-1 receptor (human, UniProt P43220 24-463)
T4 construct: whole, on cells; also called hGLP-1R; hGLP1R
Experiment: [125I]-GLP-1 competition SPA, hGLP-1R membranes
Procedure, shortened: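 Competition binding in 25 mM HEPES pH 7.4, 2.5 mM CaCl₂, 1 mM MgCl₂, 0.1% bacitracin, 0.003% TWEEN-20, EDTA-free protease inhibitors. IC₅₀ from four-parameter nonlinear fit; Kᵢ given as geometric mean ± SEM, n = independent replicates on different days.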

Binder	Ki [nM]
B3	2.92
B4	0.475
B5	2.13
B6	0.617
B7	0.875
B8	0.83
B9	3.69
B10	1.01
B11	5.1
B12	11.5
B13	1.7
B14	1.04
B15	0.717
B16	0.815
B17	1.63
B18	0.809
B19	1.64
B20	3.28
B21	2.54
B22	2.44
B23	1.37
B24	1.67
B25	1.74
B26	0.957
